Assay results taken from patent publication US20200352995A1.

Key:
[1] = molecular target: LAG3 (CD223) on BCMA-specific CTL (human) (UniProt P18627); assay: cell-based or functional assay
[2] = molecular target: OX40 (CD134) on BCMA-specific CTL (human) (UniProt P43489); assay: cell-based or functional assay
OX40 (CD134) on BCMA-specific CTL (human), sequence (P43489 29-277): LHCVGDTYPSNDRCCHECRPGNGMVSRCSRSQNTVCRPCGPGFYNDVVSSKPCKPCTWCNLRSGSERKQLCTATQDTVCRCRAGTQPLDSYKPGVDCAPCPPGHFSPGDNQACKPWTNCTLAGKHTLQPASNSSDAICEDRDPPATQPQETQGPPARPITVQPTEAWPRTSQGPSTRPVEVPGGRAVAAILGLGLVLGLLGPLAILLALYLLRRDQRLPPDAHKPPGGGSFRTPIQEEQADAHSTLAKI

LAG3 (CD223) on BCMA-specific CTL (human), sequence (P18627 23-525): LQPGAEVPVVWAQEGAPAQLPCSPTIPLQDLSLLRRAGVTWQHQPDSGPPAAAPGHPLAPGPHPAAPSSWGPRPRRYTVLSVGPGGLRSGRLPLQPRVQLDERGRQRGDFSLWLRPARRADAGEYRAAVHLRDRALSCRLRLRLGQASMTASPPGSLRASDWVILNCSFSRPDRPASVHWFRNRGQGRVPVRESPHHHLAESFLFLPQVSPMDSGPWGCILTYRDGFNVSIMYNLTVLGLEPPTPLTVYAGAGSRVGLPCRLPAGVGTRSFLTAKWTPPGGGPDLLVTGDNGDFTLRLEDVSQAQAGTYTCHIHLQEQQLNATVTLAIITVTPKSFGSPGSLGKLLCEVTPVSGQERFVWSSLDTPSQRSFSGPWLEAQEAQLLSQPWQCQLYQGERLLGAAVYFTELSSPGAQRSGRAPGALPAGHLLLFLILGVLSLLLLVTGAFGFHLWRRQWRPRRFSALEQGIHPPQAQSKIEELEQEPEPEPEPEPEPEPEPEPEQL

Clinical grade mAb to LAG3 (Bristol-Myers Squibb) (antibody)
cytotoxic activity (CD107a degranulation) by memory CTL against HLA-A2+ McCAR MM cells [1]: 14.5% | cytotoxic activity (CD107a degranulation) by memory CTL against HLA-A2+ U266 MM cells [1]: 35.8%

Clinical grade mAb to OX40 (Bristol-Myers Squibb) (antibody)
cytotoxic activity (CD107a degranulation) by memory CTL against HLA-A2+ McCAR MM cells [2]: 20% | cytotoxic activity (CD107a degranulation) by memory CTL against HLA-A2+ U266 MM cells [2]: 39.5%
